Assays:
TNFα = TNFα (UniProt P01375); experiment: cell-based or functional assay
TNFβ = molecular target: T1, TNFβ (UniProt P01374); experiment: cell-based or functional assay
T1 sequence (looked up): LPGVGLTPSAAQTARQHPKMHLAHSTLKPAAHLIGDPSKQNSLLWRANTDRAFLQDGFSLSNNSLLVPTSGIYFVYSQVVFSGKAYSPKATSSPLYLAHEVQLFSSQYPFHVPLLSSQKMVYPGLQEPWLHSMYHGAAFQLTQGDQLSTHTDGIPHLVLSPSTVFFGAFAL

Chain of TNFα (P01375 77-233 limits assumed): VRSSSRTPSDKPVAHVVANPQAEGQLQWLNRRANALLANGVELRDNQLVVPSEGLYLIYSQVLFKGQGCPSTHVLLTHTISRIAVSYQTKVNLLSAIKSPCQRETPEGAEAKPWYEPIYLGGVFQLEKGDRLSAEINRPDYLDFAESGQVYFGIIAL
Chain of concatameric fusion dimeric protein [TNFR2-TNFR2/Fc]2 (Fc fusion) (chain): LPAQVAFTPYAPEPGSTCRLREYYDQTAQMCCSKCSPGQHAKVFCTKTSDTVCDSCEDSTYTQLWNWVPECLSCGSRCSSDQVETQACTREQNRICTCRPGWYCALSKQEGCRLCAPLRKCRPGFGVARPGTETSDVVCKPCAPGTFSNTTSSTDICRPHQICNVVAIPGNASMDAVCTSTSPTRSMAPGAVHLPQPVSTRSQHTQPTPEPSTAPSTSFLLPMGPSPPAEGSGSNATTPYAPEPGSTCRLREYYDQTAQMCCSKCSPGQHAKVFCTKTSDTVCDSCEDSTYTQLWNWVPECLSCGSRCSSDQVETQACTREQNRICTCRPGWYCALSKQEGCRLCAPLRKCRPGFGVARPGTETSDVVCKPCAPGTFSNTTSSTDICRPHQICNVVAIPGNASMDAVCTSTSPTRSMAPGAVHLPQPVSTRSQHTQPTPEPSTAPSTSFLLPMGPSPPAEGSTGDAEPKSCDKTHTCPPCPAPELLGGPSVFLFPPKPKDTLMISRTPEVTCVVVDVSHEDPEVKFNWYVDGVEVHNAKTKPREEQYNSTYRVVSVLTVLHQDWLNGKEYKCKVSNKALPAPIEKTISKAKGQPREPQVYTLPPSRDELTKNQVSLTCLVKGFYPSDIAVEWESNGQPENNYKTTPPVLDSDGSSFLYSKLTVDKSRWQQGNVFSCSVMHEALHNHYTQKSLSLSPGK
Chain of concatameric fusion dimeric protein [TNFR1-TNFR1/Fc]2 (Fc fusion) (chain): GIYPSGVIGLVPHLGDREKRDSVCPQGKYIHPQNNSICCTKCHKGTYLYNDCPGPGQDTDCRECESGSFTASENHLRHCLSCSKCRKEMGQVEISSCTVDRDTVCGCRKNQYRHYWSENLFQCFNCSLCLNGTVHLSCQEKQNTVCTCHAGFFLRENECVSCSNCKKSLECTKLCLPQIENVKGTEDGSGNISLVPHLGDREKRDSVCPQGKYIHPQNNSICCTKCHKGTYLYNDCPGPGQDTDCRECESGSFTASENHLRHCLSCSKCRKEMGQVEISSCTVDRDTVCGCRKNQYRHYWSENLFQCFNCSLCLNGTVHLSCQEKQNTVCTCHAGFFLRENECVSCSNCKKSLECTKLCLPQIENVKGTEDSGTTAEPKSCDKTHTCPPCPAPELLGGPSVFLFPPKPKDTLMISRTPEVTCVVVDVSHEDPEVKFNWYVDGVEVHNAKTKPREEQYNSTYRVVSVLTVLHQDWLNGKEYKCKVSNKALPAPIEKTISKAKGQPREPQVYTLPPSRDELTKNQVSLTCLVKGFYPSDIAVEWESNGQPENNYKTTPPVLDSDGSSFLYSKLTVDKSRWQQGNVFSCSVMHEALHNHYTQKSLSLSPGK
Chain of simple fusion dimeric protein [TNFR1/Fc]2 (Fc fusion) (chain): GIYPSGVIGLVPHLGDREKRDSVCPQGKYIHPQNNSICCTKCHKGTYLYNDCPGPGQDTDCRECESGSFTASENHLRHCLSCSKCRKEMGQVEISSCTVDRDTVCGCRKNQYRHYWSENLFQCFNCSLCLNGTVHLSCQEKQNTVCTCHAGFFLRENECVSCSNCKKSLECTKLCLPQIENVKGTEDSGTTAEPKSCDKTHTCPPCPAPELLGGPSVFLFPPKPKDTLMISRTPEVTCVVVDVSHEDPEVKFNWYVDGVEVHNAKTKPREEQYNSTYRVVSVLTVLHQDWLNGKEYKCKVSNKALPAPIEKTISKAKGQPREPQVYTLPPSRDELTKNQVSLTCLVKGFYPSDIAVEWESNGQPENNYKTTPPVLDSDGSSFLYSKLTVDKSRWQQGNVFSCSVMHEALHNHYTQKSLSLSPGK
Chain of simple fusion dimeric protein [TNFR2/Fc]2 (Fc fusion) (chain): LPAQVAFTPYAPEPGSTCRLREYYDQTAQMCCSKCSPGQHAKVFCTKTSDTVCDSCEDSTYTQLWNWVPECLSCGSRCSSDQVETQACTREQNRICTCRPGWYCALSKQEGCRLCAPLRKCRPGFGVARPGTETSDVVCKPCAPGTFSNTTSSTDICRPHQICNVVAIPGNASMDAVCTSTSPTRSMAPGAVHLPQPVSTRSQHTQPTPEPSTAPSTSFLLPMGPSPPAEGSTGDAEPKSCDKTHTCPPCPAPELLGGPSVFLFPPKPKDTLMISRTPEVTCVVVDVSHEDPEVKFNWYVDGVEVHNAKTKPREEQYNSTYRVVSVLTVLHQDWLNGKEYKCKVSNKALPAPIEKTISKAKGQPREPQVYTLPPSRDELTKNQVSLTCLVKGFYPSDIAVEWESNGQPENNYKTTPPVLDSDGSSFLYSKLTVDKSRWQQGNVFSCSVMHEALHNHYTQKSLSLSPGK

Substance | IC50 of cytotoxicity inhibition, L929 cells, TNFα treated (TNFα) | IC50 of cytotoxicity inhibition, L929 cells, TNFβ treated (TNFβ)
simple fusion dimeric protein [TNFR1/Fc]2 (Fc fusion) | 63 µg/mL | 129 µg/mL
concatameric fusion dimeric protein [TNFR2-TNFR2/Fc]2 (Fc fusion) | 15 µg/mL | 15 µg/mL
simple fusion dimeric protein [TNFR2/Fc]2 (Fc fusion) | 189 µg/mL | 469 µg/mL
concatameric fusion dimeric protein [TNFR1-TNFR1/Fc]2 (Fc fusion) | 9 µg/mL | 20 µg/mL

Source: patent US20030195338A1
